# Measurements published in US20040248211A1, “ICAM-related protein” (priority 1992, published 2004).
# T1: soluble ICAM-R (Homo sapiens, UniProt P32942)
# T1 construct: made in house; host or cells: Sf-9 insect cells, recombinant baculovirus (pBBIII.ICAM-Rt1), purified on Lentil Lectin Sepharose
# T1 sequence (P32942 30-485 limits assumed): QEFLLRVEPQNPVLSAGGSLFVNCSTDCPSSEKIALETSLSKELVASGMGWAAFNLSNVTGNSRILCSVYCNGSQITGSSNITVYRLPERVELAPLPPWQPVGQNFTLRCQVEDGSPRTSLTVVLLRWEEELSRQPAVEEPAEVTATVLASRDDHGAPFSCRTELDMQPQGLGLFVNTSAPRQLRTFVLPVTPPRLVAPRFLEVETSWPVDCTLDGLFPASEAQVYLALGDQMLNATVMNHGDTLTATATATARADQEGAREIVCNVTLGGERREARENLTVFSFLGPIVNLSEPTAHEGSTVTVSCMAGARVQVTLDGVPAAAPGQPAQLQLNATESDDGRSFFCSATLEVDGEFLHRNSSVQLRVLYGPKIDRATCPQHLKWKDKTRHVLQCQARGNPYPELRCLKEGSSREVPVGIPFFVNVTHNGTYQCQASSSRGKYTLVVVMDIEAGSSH
# B1: ICR-8.1: anti-ICAM-R monoclonal antibody, IgG1, domain 1, ATCC HB 11232 (antibody, V domains shown)
# VH: EIQLQQTGPELVKPGASVKISCKASGYSFTDCIILWVKQSHGKGLEWIGKINPYFGTTTYNLKFKGKATLTVDKSSSTAHMQLNSLTSEDSAVYYCARKEAYPDAMDYWGQGTSVTVSS
# VL: DAVMTQTPLSLPVSLGDQASISCRSSQSLVHSNGDTYLHWYLQKPGQSPQLLIYKVSNRFSGVPDRFSGSGSGTDFTLKLSRVEAEDLGVYFCSQSTHVPYTFGGGTKLEIK
# B2: ICR-1.1: anti-ICAM-R monoclonal antibody, IgG2a, domain 1, ATCC HB 11053 (antibody, V domains shown)
# VH: QVQLQQSGAELAKPGASVKMSCKASGYTFTVYWMHWVKQRPGQGLEWIGYINPNTDYTEYNQRFQDKATLTADKSSSTAYMQLSSLTSEDSAVYYCARWGGNSYGLDYWGQGTSVTVSS
# VL: QIVLTQSPALMSASPGEKVTMTCSASSSVSYIYWYQQKPRSSPKPWIYLTSNLASGVPARFSGSGSGASYSLTISIMEAEDAATYYCQQWKSIPLTFGAGTKLELK
# Assays:
# Monocytes = test: IL-8 release from monocytes; assay type: cell-based, human; conditions: wells coated 10 μg/ml
# Experimental: Monocytes were isolated by elutriation from peripheral blood of normal donors. […] After blocking free sites, the cells were placed into the wells in medium. […] Those cells plated in wells treated with BSA plus or minus LPS were rounded and not spread. After 8 or 18 hours of incubation at 37° C., the medium was removed and assayed for IL-8 immunoreactivity. […] By 18 hours, IL-8 levels in media from ICR monoclonal antibody wells were much elevated over control levels. […] Similar experiments with monocytic cell lines (U937 and HL60) to determine if ICR monoclonal antibody can induce IL-8 release were conducted. U937 cells responded to each of the ICR monoclonal antibody treated wells by releasing IL-8 into the conditioned medium. […] No detectable morphological changes were detected with the U937 or HL60 cells.
# soluble ICAM-R = biological target: T1, soluble ICAM-R; test: ELISA binding to soluble ICAM-R coated onto plastic; conditions: serially diluted purified antibody; 50% maximal binding
# Experimental: Nine of the purified anti-ICAM-R monoclonal antibodies were diluted serially and assayed in an ELISA format for binding to a fixed amount of soluble ICAM-R (Example 9) coated onto plastic. The results of the assay are presented in Table 3 below wherein high affinity binding was defined as 50% maximal binding at a monoclonal antibody concentration of less than 1 μg/ml and low affinity binding was defined as 50% maximal binding at a monoclonal antibody concentration of greater than 1 μg/ml.
# human PBL = test: SEA-induced proliferation of PBL; assay type: cell-based; conditions: for proliferation in response to SEA, plate-bound antibody: 3 days, 3H-thymidine
# [1] = test system: PBMC responder and irradiated stimulator cells; test: Alloantigen-induced lymphocyte proliferation; assay type: cell-based, human
# Experimental: Monoclonal antibodies to ICAM-R were also tested for the ability to alter lymphocyte proliferation (as measured by ^3H-thymidine incorporation) in response to alloantigenic irradiated stimulator cells. Responder cells were prepared by obtaining PBMC from a normal donor using Histopaque centrifugation as described above. To prepare stimulator cells, PBMC from a second, unrelated donor were concurrently isolated and irradiated at 1500R by exposure to a gamma emitting cesium source. Two hundred thousand responder cells and 2×10^5 irradiated stimulator cells (suspended in culture medium) were then added to wells containing soluble or immobilized ICR-1.1, ICR-2.1, ICR-3.1, ICR-4.2, ICR-5.1, ICR-6.2, ICR-7.1, ICR-8.1, ICR-9.2, immobilized B-H9, immobilized p10.1, or soluble 515F (anti-rat CD18) antibody and incubated for 6 days at 37° C., 5% CO2. Lymphocyte proliferation (^3H-thymidine incorporation) was assessed in the last 18-24 hours of culture.
# [2] = test system: binding of JY cells (CD18+) to recombinant soluble human ICAM-R; test: JY cell adhesion to recombinant soluble human ICAM-R; assay type: cell-based; conditions: for Inhibition (%) of total CD18-dependent binding: antibody 10 μg/ml, PMA-treated JY cells, total = adhesion blocked by anti-CD18 60.3
# Experimental: The partially purified shICAM-R protein was assayed for binding to SKW3 cells that were pretreated with phorbol ester as described in Example 7 to activate LFA-1-dependent adhesion. The ICAM-R protein was coated onto 96-well Immulon 4 (Dynatech) plates after adjusting the lectin eluate to 25 mM carbonate pH 9.6 and incubated overnight at 4° C. The plates were washed two times with PBS, blocked for 30 minutes at 37° C. with 200 ul/well PBS, 1% BSA, and washed again with PBS before adding cells. SKW3 cells were washed in serum-free RPMI (Gibco), labelled with Calcein-AM (Molecular Probes), and stimulated with PMA. Cells were then added to the plates and incubated for 1 hour at 37° C. The plates were inverted in prewarmed PBS, 1% BSA and were incubated for 30 minutes. The plates were then removed and half of the contents of each well was aspriated. The plates were then scanned with a fluorescence microscope and an automated fluorescence reader.
# ICAM-R specific monoclonal antibodies listed in Table 11 in Example 22 were tested for their ability to inhibit binding of JY cells (CD18^+) to recombinant soluble human ICAM-R. Adhesion assays were performed as described in Example 9. Cells were treated with PMA and antibodies were then added at a final concentration of 10 μg/ml. Data was collected from triplicate wells during three independent experiments. Total CD18-dependent binding was determined as the amount of adhesion blocked by a control anti-CD18 monoclonal antibody 60.3. The percentage of total CD18-dependent binding that was inhibited by each monoclonal antibody is shown below in Table 4 wherein the names assigned to monoclonal antibodies produced by each hybridoma are given and “ND” indicates the antibody was not tested. The monoclonal antibody names are used throughout the following examples instead of hybridoma designations.
Molecule,IL-8 level at 18 hours over the level at the 8 hour time point (Monocytes),Affinity (soluble ICAM-R),Blockade of Lymphocyte Activation SEA (human PBL),"proliferation in response to SEA, plate-bound antibody (human PBL)",Blockade of Lymphocyte Activation Alloantigen [1],"alloantigen proliferation, immobilized antibody ([1]; 6 days)","alloantigen proliferation, soluble antibody ([1]; 6 days)",Blockade of Adhesion of JY Cells to Soluble ICAM-R [2],Inhibition (%) of total CD18-dependent binding [2] [%],"IC50 (human PBL; from logistic dose response curves, proliferation versus control antibodies) [µg/mL]"
B1,two times,High (50% maximal binding at a monoclonal antibody concentration of less than 1 μg/ml),YES,significantly inhibited proliferation,YES,consistently reduced proliferation,inhibited alloantigen-stimulated proliferation,YES,75,
B2,ten times,Low (50% maximal binding at a monoclonal antibody concentration of greater than 1 μg/ml),YES,significantly inhibited proliferation,YES,consistently reduced proliferation,,YES,45,63
